According to US20100048462A1, “TRUNCATED PTH PEPTIDES WITH A CYCLIC CONFORMATION” (Zealand Pharma A/S, priority 2006, published 2010):
Bridge positions count the residues as written; N and C are the ends. Square brackets hold non-standard residues; d marks the D form. hArg = N=C(N)NCCCC[C@H](N)C(=O)O; Met(O) = CS(=O)CC[C@H](N)C(=O)O; Ac5c = NC1(C(=O)O)CCCC1; Abu = CC[C@H](N)C(=O)O; Aib = CC(C)(N)C(=O)O

Target: Saos-2 PTH1R (UniProt Q03431)
Experiment: cell-based or functional assay

H-Ac5c-Val-Aib-Glu-Ile-Gln-Leu-Met-His-Gln-Har-Ala-Asp( )-Trp-Leu-Asn-Lys( )-NH2 (peptide)
Emax, cAMP efficacy assay in Saos-2 cells (6T, trifluoroacetate salt) (relative to control (SEQ ID NO: 32)): 1.5
pEC50, cAMP efficacy assay in Saos-2 cells (6T, trifluoroacetate salt): 6.9 -log(M)

H-Ac5c-Val-Aib-Glu-Ile-Gln-Leu-Met-His-Gln-Har-Ala-Lys( )-Phe-Leu-Asn-Asp( )-NH2 (peptide)
Emax, cAMP efficacy assay in Saos-2 cells (26T, trifluoroacetate salt) (relative to control (SEQ ID NO: 32)): 1.08
pEC50, cAMP efficacy assay in Saos-2 cells (26T, trifluoroacetate salt): 7.9 -log(M)

H-Ac5c-Val-Nva-Glu-Ile-Gln-Leu-Leu-His-Gln-Har-Ala-Lys( )-Trp-Leu-Asn-Asp( )-NH2 (peptide)
Emax, cAMP efficacy assay in Saos-2 cells (16T, trifluoroacetate salt) (relative to control (SEQ ID NO: 32)): 1.03
pEC50, cAMP efficacy assay in Saos-2 cells (16T, trifluoroacetate salt): 6.92 -log(M)

H-Ac6c-Val-Aib-Glu-Ile-Gln-Leu-Leu-His-Gln-Har-Ala-Lys( )-Trp-Leu-Asn-Asp( )-NH2 (peptide)
Emax, cAMP efficacy assay in Saos-2 cells (10T, trifluoroacetate salt) (relative to control (SEQ ID NO: 32)): 1.08
pEC50, cAMP efficacy assay in Saos-2 cells (10T, trifluoroacetate salt): 7.9 -log(M)

H-Nva-Val-Aib-Glu-Ile-Gln-Leu-Leu-His-Gln-Har-Ala-Lys( )-Trp-Leu-Asn-Asp( )-NH2 (peptide)
Emax, cAMP efficacy assay in Saos-2 cells (12T, trifluoroacetate salt) (relative to control (SEQ ID NO: 32)): 1.04
pEC50, cAMP efficacy assay in Saos-2 cells (12T, trifluoroacetate salt): 6.99 -log(M)

H-[Ac5c]V[Aib]EIQLMHQ[hArg]AKWLND-OH
Emax, cAMP efficacy assay in Saos-2 cells (38T, trifluoroacetate salt) (relative to control (SEQ ID NO: 32)): 1.2
pEC50, cAMP efficacy assay in Saos-2 cells (38T, trifluoroacetate salt): 7 -log(M)

B1: H-Abu-Val-Aib-Glu-Ile-Gln-Leu-Leu-His-Gln-Har-Ala-Lys( )-Trp-Leu-Asn-Asp( )-NH2 (peptide)
chain: H-[Abu]V[Aib]EIQLLHQ[hArg]AKWLND-NH2
modifications: lactam 13-17
SMILES: CC[C@H](N)C(=O)N[C@H](C(=O)NC(C)(C)C(=O)N[C@@H](CCC(=O)O)C(=O)N[C@H](C(=O)N[C@@H](CCC(N)=O)C(=O)N[C@@H](CC(C)C)C(=O)N[C@@H](CC(C)C)C(=O)N[C@@H](Cc1c[nH]cn1)C(=O)N[C@@H](CCC(N)=O)C(=O)N[C@@H](CCCCNC(=N)N)C(=O)N[C@@H](C)C(=O)N[C@H]1CCCCNC(=O)C[C@@H](C(N)=O)NC(=O)[C@H](CC(N)=O)NC(=O)[C@H](CC(C)C)NC(=O)[C@H](Cc2c[nH]c3ccccc23)NC1=O)[C@@H](C)CC)C(C)C
Emax, cAMP efficacy assay in Saos-2 cells (11T, trifluoroacetate salt) (relative to control (SEQ ID NO: 32)): 1.04
pEC50, cAMP efficacy assay in Saos-2 cells (11T, trifluoroacetate salt): 7.17 -log(M)

H-[Ac5c]V[Aib]EIQL[Met(O)]HQ[hArg]AKWLND-NH2 (lactam 13-17) [H-Ac5c-Val-Aib-Glu-Ile-Gln-Leu-Met(O)-His-Gln-Har-Ala-Lys( )-Trp-Leu-Asn-Asp( )-NH2]
Emax, cAMP efficacy assay in Saos-2 cells (40T, trifluoroacetate salt) (relative to control (SEQ ID NO: 32)): 1.1
pEC50, cAMP efficacy assay in Saos-2 cells (40T, trifluoroacetate salt): 6.9 -log(M)

B2: H-Ac5c-Val-Aib-Glu-Ile-Gln-Leu-Leu-His-Gln-Har-Ala-Lys( )-Trp-Leu-Asn-Asp( )-OH (peptide)
chain: H-[Ac5c]V[Aib]EIQLLHQ[hArg]AKWLND-OH
modifications: lactam 13-17
SMILES: CC[C@H](C)[C@H](NC(=O)[C@H](CCC(=O)O)NC(=O)C(C)(C)NC(=O)[C@@H](NC(=O)C1(N)CCCC1)C(C)C)C(=O)N[C@@H](CCC(N)=O)C(=O)N[C@@H](CC(C)C)C(=O)N[C@@H](CC(C)C)C(=O)N[C@@H](Cc1c[nH]cn1)C(=O)N[C@@H](CCC(N)=O)C(=O)N[C@@H](CCCCNC(=N)N)C(=O)N[C@@H](C)C(=O)N[C@H]1CCCCNC(=O)C[C@@H](C(=O)O)NC(=O)[C@H](CC(N)=O)NC(=O)[C@H](CC(C)C)NC(=O)[C@H](Cc2c[nH]c3ccccc23)NC1=O
Emax, cAMP efficacy assay in Saos-2 cells (5T, trifluoroacetate salt) (relative to control (SEQ ID NO: 32)): 1.16
pEC50, cAMP efficacy assay in Saos-2 cells (5T, trifluoroacetate salt): 7.14 -log(M)
